The record followed here is patent US20110262446A1 (published 2011).

Test [1] concerns the target T1, IGF-II (amino acids 1-67) (human, UniProt P01344 25-91).
T1 construct: mature; also called IGF-II (67aa); IGF2
The test is described as follows: competition SPR (Biacore T100) on immobilized huIR-A ECD, measurement #1. As to the method: Competition SPR (BIACORE®) was performed under conditions of partially mass-transport limited conditions according to previously described methodology (Nieba et al., 1996). Approximately 16,700 relative response units (RU) of huIR-A (-exon11) ectodomain was coupled by standard amine chemistry to a BIACORE® CM5 chip sensor. Uncoated flow-cell surface was used as a reference. […] Regeneration of the surface was achieved by injection of 30 ul NaCltrate/NaCl pH 4.5. […] These Req estimates were subsequently plotted against total concentrations of Fab used and the resulting inhibition curve was utilised to calculate dissociation constant (KD).
For orientation: In SPR one partner is held on a chip, and binding of the other changes the refractive index at the surface.

Test [2] addresses T1, IGF-II (amino acids 1-67). The test is described as follows: SPR (Biacore T100): IgG captured on Protein G', IGF-II injected. As to the method:
(§1) BIACORE® T100 and a CM5 chip coated with Protein G were utilised to set up following assay. Approximately 1000 RU of Protein G′ was immobilized on a CM5 chip using standard amine chemistry immobilization method. Entire assay consisted of three sequential injection of following four reagents 1) Candidate IgG was injected onto Protein G′ at 10 ug/ml at 5 ul/min for 180 sec.

Test [3] has as its target T1, IGF-II (amino acids 1-67). The test can be described thus: SPR (Biacore T100): IgG captured on Protein G', ligand bound, then BP injected; competitor BP2. The procedure:
as §1

Test [4] concerns the target T1, IGF-II (amino acids 1-67). The test is described as follows: SPR (Biacore T100): IgG captured on Protein G', ligand bound, then BP injected; competitor BP4. The procedure: as §1
The target in test [5] is T1, IGF-II (amino acids 1-67). The test is described as follows: SPR (Biacore), non-germlined IgG.
Test [6] has as its target T1, IGF-II (amino acids 1-67). The test is described as follows: SPR (Biacore), germlined IgG.
The target of test [7] is T2, IGF binding protein BP4 (UniProt P22692 22-258).
T2 construct: also called IGF BP4
T2 sequence (looked up): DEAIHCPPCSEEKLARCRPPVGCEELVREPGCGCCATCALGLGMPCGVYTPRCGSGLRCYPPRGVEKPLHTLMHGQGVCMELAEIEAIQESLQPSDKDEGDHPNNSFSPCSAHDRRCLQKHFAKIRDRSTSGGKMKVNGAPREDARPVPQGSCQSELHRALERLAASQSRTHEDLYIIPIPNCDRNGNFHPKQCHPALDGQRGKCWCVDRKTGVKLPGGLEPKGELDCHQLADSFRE
The test can be described thus: SPR (Biacore T100): control with no IGF-II injected before the BP. As to the method: as §1

The target in test [8] is T3, IGF binding protein BP2 (UniProt P18065 36-325).
T3 construct: also called IGF BP2
T3 sequence (looked up): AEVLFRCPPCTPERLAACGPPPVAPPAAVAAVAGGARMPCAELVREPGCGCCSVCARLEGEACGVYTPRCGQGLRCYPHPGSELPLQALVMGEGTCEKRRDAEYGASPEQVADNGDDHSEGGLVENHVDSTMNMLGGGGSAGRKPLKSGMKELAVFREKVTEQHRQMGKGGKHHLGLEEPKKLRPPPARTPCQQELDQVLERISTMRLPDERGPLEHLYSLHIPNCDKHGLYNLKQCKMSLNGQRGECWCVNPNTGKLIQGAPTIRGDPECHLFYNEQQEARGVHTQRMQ
Described as above. As to the method:
as §1

Test [9] has as its target T1, IGF-II (amino acids 1-67). The test is described as follows: cell-based or functional assay.

T1 sequence (P01344 25-91): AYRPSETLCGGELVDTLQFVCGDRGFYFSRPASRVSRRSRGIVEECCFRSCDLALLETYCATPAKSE

B1: M0080-G03 Fab (Fab, V domains shown)
VH: EVQLLESGGGLVQPGGSLRLSCAASGFTFSFYQMMWVRQAPGKGLEWVSSISPSGGRTYYADSVKGRFTISRDNSKNTLYLQMNSLRAEDTAVYYCAKDIGLGYCSSTSCYTGTPLDYWGQGTLVTVSS
VL: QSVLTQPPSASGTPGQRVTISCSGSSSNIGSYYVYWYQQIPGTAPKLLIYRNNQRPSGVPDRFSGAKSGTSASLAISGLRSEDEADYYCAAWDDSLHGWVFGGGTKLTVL
notes: Anti-IGF-IIE Fab; the constant regions are printed only in part; also called 566A-M0080-G03; 566A-X0004-A02
For the molecule B1, the binding result in test [1] is “no binding”.

B2: M0080-G03 IgG (antibody, V domains shown)
VH: EVQLLESGGGLVQPGGSLRLSCAASGFTFSFYQMMWVRQAPGKGLEWVSSISPSGGRTYYADSVKGRFTISRDNSKNTLYLQMNSLRAEDTAVYYCAKDIGLGYCSSTSCYTGTPLDYWGQGTLVTVSS
VL: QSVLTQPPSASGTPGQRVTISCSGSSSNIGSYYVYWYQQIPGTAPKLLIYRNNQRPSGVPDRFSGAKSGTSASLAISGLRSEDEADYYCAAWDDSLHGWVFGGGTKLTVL
notes: also called 566A-M0080-G03; 566A-X0004-A02
For B2, the binding result in test [2] is “no binding (tested: 50 nM)”.

B3: M0064-F02 IgG (antibody, V domains shown)
VH: EVQLLESGGGLVQPGGSLRLSCAASGFTFSNYIMWWVRQAPGKGLEWVSVISSSGGMTRYADSVKGRFTISRDNSKNTLYLQMNSLRAEDTAVYYCARDNGDYVGEKGFDIWGQGTMVTVSS
VL: DIQMTQSPSSLSASVGDRVTITCRASQSISNYLNWYQQKPGKAPKLLIYTASTLQSGVPSRFSGSASGTDFTLTINSLQPEDFATYSCQQSYNSPWTFGQGTKVEIK
notes: IgG form of the Fab; also called non-germlined M0064-F02
With B3, the “competition score (0 = does not compete significantly, 5 = competes strongly)” value in test [3] and in [4] was 4 score 0-5 each time. The equilibrium dissociation constant (Kd) (commonly a measure of binding affinity in units of concentration) in test [5] was 0.14 nM.

B4: X0008-A01 (germlined M0064-F02 IgG) (antibody, V domains shown)
VH: EVQLLESGGGLVQPGGSLRLSCAASGFTFSNYIMWWVRQAPGKGLEWVSVISSSGGMTRYADSVKGRFTISRDNSKNTLYLQMNSLRAEDTAVYYCARDNGDYVGEKGFDIWGQGTMVTVSS
VL: DIQMTQSPSSLSASVGDRVTITCRASQSISNYLNWYQQKPGKAPKLLIYTASTLQSGVPSRFSGSGSGTDFTLTISSLQPEDFATYYCQQSYNSPWTFGQGTKVEIK
In turn, B4 registered a Kd in [6] of 0.023 nM.

B5: M0064-E04 IgG (antibody, V domains shown)
VH: EVQLLESGGGLVQPGGSLRLSCAASGFTFSVYDMNWVRQAPGKGLEWVSSISSSGGGTLYADSVKGRFTISRDNSKNTLYLQMNSLRAEDTAVYYCARDSDTSSYYWYYDLWGRGTLVTVSS
VL: DIQMTQSPSSLSASVGDRVTITCQASHDISNYLNWYQQKPGKAPKLLIYAASRLQSGVPSRFSGGGSGTDFSLTISSLQAEDFATYYCQQSYSFPRTFGQGTNLEIK
notes: IgG form of the Fab; also called non-germlined M0064-E04
For B5, the “competition score (0 = does not compete significantly, 5 = competes strongly)” value in test [3] and in test [4] was 5 score 0-5 in each case. Moreover, the binding result in test [7] and in [8] was “no binding (tested: 50 nM)” each time. Moreover, the “IC50, IGF-II stimulated BaF3 cell proliferation (Guava ViaCount)” value in [9] was ~19 nM. Also, binding in [5] was put at a Kd of 0.52 nM.

B6: M0073-C11 Fab (Fab, V domains shown)
VH: EVQLLESGGGLVQPGGSLRLSCAASGFTFSPYDMWWVRQAPGKGLEWVSSISSSGGITAYADSVKGRFTISRDNSKNTLYLQMNSLRAEDTAVYYCARAGYSSSWGYYYYGMDVWGQGTTVTVSS
VL: QSALTQPPSVSVSPGQTASITCSGDRLGDKYASWYQQKPGQSPVLVIYQDTKRPSGIPERFSGSNSGSTATLTISGTQAMDEADYYCQAWDSSTVVFGGGTKLTVL
notes: Anti-IGF-IIE Fab; the constant regions are printed only in part; also called 566A-M0073-C11; 566A-X0003-B02
As to B6, in test [1], the binding result is recorded as “no binding”.

B7: 566A-M0073-C11 IgG (antibody, V domains shown)
VH: EVQLLESGGGLVQPGGSLRLSCAASGFTFSPYDMWWVRQAPGKGLEWVSSISSSGGITAYADSVKGRFTISRDNSKNTLYLQMNSLRAEDTAVYYCARAGYSSSWGYYYYGMDVWGQGTTVTVSS
VL: QSALTQPPSVSVSPGQTASITCSGDRLGDKYASWYQQKPGQSPVLVIYQDTKRPSGIPERFSGSNSGSTATLTISGTQAMDEADYYCQAWDSSTVVFGGGTKLTVL
notes: also called 566A-X0003-B02
Turning to B7, in [2], the binding result is “no binding (tested: 50 nM)”.
